From patent US20140178935A1 (AVEO PHARMACEUTICALS, published 2014) come the findings set out here.

The target of assay [1] is T1, recombinant human HGF (R&D Systems, Catalog No. 294-HGN-025) (human, UniProt P14210 32-728).
T1 construct: Mature HGF is a disulfide-linked heterodimer of alpha and beta chain cut from one precursor; also called rhHGF (R&D Systems); rhHGF
The experiment in a line: SPR, antibody captured by anti-mouse Ig, HGF injected, 25 C. On the procedure: Rabbit anti-mouse immunoglobulins (BIAcore, Catalog No. BR-1005-14) were immobilized on carboxymethylated dextran CM5 sensor chips (BIAcore, Catalog No. BR-1006-68) by amine coupling (BIAcore, Catalog No. BR-1000-50) using a standard coupling protocol according to manufacturer's instructions. The analyses were performed at 25° C. using PBS (GIBCO, Catalog No. 14040-133) containing 0.05% surfactant P20 (BIAcore, Catalog No. BR-1000-54), 2 mg/mL BSA (EMD, Catalog No. 2930), and 10 mg/mL CM-Dextran Sodium salt (Fluka, Catalog No. 86524) as running buffer.
The antibodies were captured in an individual flow cell at a flow rate of 10 μL/min. Injection time was variable for each antibody to yield approximately 20 RU of antibody captured for each cycle. […] The dissociation phase was monitored for 15 or 90 minutes, depending on concentration. The surface then was regenerated with 10 mM Glycine-HCl, pH 1.7 (BIAcore, Catalog No. BR-1003-54) injected for 3 minutes at a flow rate of 60 μL/min before another cycle was initiated.
Kinetic parameters were determined using the kinetic function of the BIAevalutation software with reference subtraction.
In general terms: Surface plasmon resonance follows binding to a sensor surface in real time, without labels.

Assay [2] has as its target T1, recombinant human HGF (R&D Systems, …). The experiment in a line: cell-based or functional assay.
The target in assay [3] is hHGF-Fc C561R (recombinant hHGF protein containing a cysteine to arginine substitution at position 561) (human). The experiment in a line: SPR, antibody immobilized, HGF protein injected, 25 C.
Chain of hHGF-Fc C561R (recombinant hHGF protein containing a cysteine to arginine substitution at position 561) (human) (chain, as listed by the source C561R C561R limits assumed): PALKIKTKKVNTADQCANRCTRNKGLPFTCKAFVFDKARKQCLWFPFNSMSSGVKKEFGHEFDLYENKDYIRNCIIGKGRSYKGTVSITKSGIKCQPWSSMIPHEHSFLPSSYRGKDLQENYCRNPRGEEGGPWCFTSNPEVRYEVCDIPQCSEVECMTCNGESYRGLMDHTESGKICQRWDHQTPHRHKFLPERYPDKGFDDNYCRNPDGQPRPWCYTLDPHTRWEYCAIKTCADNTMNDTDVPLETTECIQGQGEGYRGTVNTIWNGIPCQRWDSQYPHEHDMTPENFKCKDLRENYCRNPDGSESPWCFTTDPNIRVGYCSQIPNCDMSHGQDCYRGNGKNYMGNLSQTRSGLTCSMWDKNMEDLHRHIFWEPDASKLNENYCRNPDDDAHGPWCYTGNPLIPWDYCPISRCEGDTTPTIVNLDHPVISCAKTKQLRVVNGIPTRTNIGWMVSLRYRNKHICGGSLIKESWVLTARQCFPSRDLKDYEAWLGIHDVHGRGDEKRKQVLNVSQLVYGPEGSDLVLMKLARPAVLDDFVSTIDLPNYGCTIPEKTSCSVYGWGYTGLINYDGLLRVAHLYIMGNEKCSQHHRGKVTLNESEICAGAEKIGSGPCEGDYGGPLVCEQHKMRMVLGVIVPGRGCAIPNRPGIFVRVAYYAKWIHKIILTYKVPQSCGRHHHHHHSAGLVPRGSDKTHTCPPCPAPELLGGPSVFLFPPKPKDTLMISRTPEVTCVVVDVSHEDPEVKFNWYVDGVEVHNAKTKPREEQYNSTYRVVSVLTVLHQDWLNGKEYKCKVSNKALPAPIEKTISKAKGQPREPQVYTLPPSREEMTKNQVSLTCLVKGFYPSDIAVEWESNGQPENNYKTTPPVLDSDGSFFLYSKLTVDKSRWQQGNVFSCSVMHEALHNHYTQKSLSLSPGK

T1 sequence (P14210 32-728 limits assumed): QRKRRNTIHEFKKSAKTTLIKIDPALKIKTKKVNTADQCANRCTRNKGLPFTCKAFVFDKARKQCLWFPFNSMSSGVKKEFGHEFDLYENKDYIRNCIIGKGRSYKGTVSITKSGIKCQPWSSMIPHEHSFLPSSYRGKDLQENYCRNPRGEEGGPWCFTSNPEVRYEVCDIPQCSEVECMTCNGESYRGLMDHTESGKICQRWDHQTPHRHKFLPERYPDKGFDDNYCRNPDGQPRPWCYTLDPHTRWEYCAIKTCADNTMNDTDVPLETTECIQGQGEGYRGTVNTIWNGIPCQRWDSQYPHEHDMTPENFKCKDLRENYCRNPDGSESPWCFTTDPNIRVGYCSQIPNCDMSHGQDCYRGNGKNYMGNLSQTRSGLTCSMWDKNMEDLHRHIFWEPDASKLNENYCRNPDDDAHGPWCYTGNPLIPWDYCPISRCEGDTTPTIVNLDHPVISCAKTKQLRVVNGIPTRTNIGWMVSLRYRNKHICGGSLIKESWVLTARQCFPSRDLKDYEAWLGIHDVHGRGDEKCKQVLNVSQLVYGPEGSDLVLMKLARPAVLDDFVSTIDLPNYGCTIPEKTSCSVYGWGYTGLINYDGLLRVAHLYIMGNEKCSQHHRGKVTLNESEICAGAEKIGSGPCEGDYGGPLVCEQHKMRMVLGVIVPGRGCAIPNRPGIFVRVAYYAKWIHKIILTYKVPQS

B1: anti-hHGF monoclonal antibody 2B8 (antibody, mouse IgG1, kappa)
heavy: QVQLQQPGAELVKPGTSVKLSCKASGYTFTTYWMHWVNQRPGQGLEWIGEINPTNGHTNYNEKFKSKATLTVDKSSSTAYMQLSSLTSEDSAVYYCARNYVGSIFDYWGQGTTLTVSSAKTTPPSVYPLAPGSAAQTNSMVTLGCLVKGYFPEPVTVTWNSGSLSSGVHTFPAVLQSDLYTLSSSVTVPSSTWPSETVTCNVAHPASSTKVDKKIVPRDCGCKPCICTVPEVSSVFIFPPKPKDVLTITLTPKVTCVVVDISKDDPEVQFSWFVDDVEVHTAQTQPREEQFNSTFRSVSELPIMHQDWLNGKEFKCRVNSAAFPAPIEKTISKTKGRPKAPQVYTIPPPKEQMAKDKVSLTCMITDFFPEDITVEWQWNGQPAENYKNTQPIMDTDGSYFVYSKLNVQKSNWEAGNTFTCSVLHEGLHNHHTEKSLSHSPGK
light: NIVMTQSPKSMSMSVGERVTLSCKASENVVSYVSWYQQKPAQSPKLLIYGASNRNTGVPDRFTGSGSATDFTLTISSVRAEDLADYHCGQSYNYPYTFGGGTRLEIKRADAAPTVSIFPPSSEQLTSGGASVVCFLNNFYPKDINVKWKIDGSERQNGVLNSWTDQDSKDSTYSMSSTLTLTKDEYERHNSYTCEATHKTSTSPIVKSFNRNEC
notes: Murine IgG1 kappa from hybridoma; also called murine 2B8; mouse 2B8
As to B1, in assay [1], the Kd was determined as 0.0135 nM, the koff worked out at 2.1e-05 s⁻¹ and the kon turned out to be 1.6e+06 M⁻¹ s⁻¹. Moreover, in assay [2], the “EC50, inhibition of HGF-stimulated c-Met phosphorylation in PC-3 cells, Average of Two Trials” value is 0.287 nM. For the same molecule, the binding result in assay [3] is given as “binds”.

As usually defined, the Kd is the equilibrium constant for the complex coming apart. In general, koff refers to the rate constant with which the complex falls apart. The kon is the rate constant with which the complex forms.
